These results are taken from the DeepSol protein solubility set.

The series can be described thus: soluble on expression in E. coli; label from the status in PepcDB or PDB records.
Consider “SLARELMRTQKEIFALILDFAKRTDSIRAVTLEGSRANPNIKQDKFCDYDISFFLNAKNLESFKNNEEWLKIFGNILMLQKPESMELYPPDLREGWFSFLVLFDDGVRIDLSLIPLADIEWYKDNERLMRVLLDKDNQFMPINEPSDSAFFIKPLTKQSFLDCCNELYWLYVCTHKDILRGELLLANAHLAMMREGLLILLSWRVALRQNNFAFSLGKEYKFLPHFLEPKERKTLYKCYKLGDLKQAQKTLKIMEKFFAKNARELIKVHFKDLHTLPYAKVAKQYVRILKHKIV”, for which the “soluble on expression in E. coli” value was “soluble”.
Regarding “SLARSPSVSAGTRPHAGEHTDTSPISSAVSAPSPSSLPLVFSPQPSVSSSSLPLSSSSLARVSSSPQPSASSASLPLSSSRQSGEALGSSGAASSESSRERQGKLRLRHPRQRKPFLLQVLHAEHRCHNPRELARVQRAGGSIFAGRVGGVLEPSRSVGDFDVKDAQPPGVLIATPEVCRVKVRKPTLVLLGTDGVWDMLCSADVLACVKKVTQFWQLLLAAFRERMEELQEEATEKQENEKERGEGDQVRESSGNGKG”, the “soluble on expression in E. coli” value is reported as “soluble”.
In the case of “SLDICSKNPCHNGGLCEEISQEVRGDVFPSYTCTCLKGYAGNHCETKCVEPLGMENGNIANSQIAASSVRVTFLGLQHWVPELARLNRAGMVNAWTPSSNDDNPWIQVNLLRRMWVTGVVTQGASRLASHEYLKAFKVAYSLNGHEFDFIHDVNKKHKEFVGNWNKNAVHVNLFETPVEAQYVRLYPTSCHTACTLRFELLGCELNGCANPLGLKNNSIPDKQITASSSYKTWGLHLFSWNPSYARLDKQGNFNAWVAGSYGNDQWLQVDLGSSKEVTGIITQGARNFGSVQFVASYKVAYSNDSANWTEYQDPRTGSSKIFPGNWDNHSHKKNLFETPILARYVRILPVAWHNRIALRLELLGC”, the “soluble on expression in E. coli” value is given as “soluble”.
In the case of “SLEGGDTLEGSMAQLKKGLESGTVLIQFEQLYRKKPGLAITFAKLPQNLDKNRYKDVLPYDTTRVLLQGNEDYINASYVNMEIPAANLVNKYIATQGPLPHTCAQFWQVVWDQKLSLIVMLTTLTERGRTKCHQYWPDPPDVMNHGGFHIQCQSEDCTIAYVSREMLVTNTQTGEEHTVTHLQYVAWPDHGVPDDSSDFLEFVNYVRSLRVDSEPLLVHCSAGIGRTGVLVTMETAMCLTERNLPIYPLDIVRKMRDQRAMMVQTSSQYKFVCEAILRVYEEGLVQMLDPS”, the “soluble on expression in E. coli” value was “soluble”.
Regarding “SLENVLASHSKMQGALEKVQIELGRRDSEIAGLKKERDLNQQRVQKLEAEVDQWQARMLVMEDQHNSEIESLQKALGVAREDNRKLAMSLEQALQTNNHLQTKLDHIQEQLESKELERQNLETFKDRMTEESKVEAELHAERIEALRKQFQTERETTKKVAQREVAELKKALDEANFRSVEVSRTNRELRQKLAELEKILESNKEKIKNQKTQIKLHLSAKANNAQNIERMKVVWETSSHFLDTL”, the “soluble on expression in E. coli” value is on record as “soluble”.
As for “SLETKVAARDLSSLLSHCEAPVAALTVTAFKCKASACSVAPAPGSNTGLGALMSMAQAAQGLQTFPNIGDGLSNALTTALKTTGCFKVMAREDFEDLRREAEAAGITLKSASADYLVTGAITSLAVGAKTQSFGGGFVPLVGAVSRSTKSANISIDVRLVDVKASEVKASQTFDVSNERSSWGAGGAGWGGSGALFGAASSTQSPELDSVANESVIQAANYIVTQVAGSAAIPPVAAITK”, the “soluble on expression in E. coli” value is on record as “soluble”.
In the case of “SLGNGMNKILPGLYIGNFKDARDAEQLSKNKVTHILSVHDSARPMLEGVKYLCIPAADSPSQNLTRHFKESIKFIHECRLRGESCLVHCLAGVSRSVTLVIAYIMTVTDFGWEDALHTVRAGRSCANPNVGFQRQLQEFEKHEVHQ”, the “soluble on expression in E. coli” value was “not soluble”.
Take “SLGQADTERLLSDRKLVLLVDLDQTLIHTTNDNVPNNLKDVYHFQLYGPNSPWYHTRLRPGALEFLAKMHPYYELHICTFGARNYAHMIAQFLDKDGNFFSHRILSRDECFNATSKTDNLKALFPCGDSMVCIIDDREDVWNMASNLIQVKPYHFFRHTGDINAPPGMSKNELDGKGVDFKELMSQSQK”: the “soluble on expression in E. coli” value is reported as “soluble”.
On to “SLHVTELTAFLVPLPLKREIKHASFTRTESINLLIRCKLSNGTIGWGEGVPRPYVTGETPEGCLQQLSQSNLHPALMQSASNWPEVIAICDALQFNNDSDDSRGCGSNSLRCAVELSLLDAFGRHFGQPVSAVVPHVAEAAEIHVRQPRVRYSTTITSSGAKSERISALKMRAYGFAQCKIKVGVDGQDDPSRVARIRRWIGGGVDLRLDANEAWRPEEVAEKMRPLREFGVTCIEQPVAHDQVDALASLRESIGVPIMLDESLTSRMDAERAIELGTCDLFNLRLSKCGGFLSCLRLAALARASGLGYQLGCHPGESGVLSAAGRHWASSVRDIRYLEGSYDRHLLTTLPTQEDITFRYGGWAPALDSPGLGVTIREDWLRQNAKAERTFVVEAQ”, for which the “soluble on expression in E. coli” value is on record as “soluble”.
Turning to “SLIDKIKSNARDLRRNLTLQERKLWRYLRSRRFSDFKFRRQHPVGSYILDFACCSARVVVELDGGQHDLAVAYDSRRTSWLESQGWTVLRFWNNEIDCNEETVLENILQELNRRSPSP”, the “soluble on expression in E. coli” value was “soluble”.
“SLIKKVKIKKFNGRDFYDMEDYVAVEESYNIFINGEFVKSLSMSPNFLNEFAVGFAISEGFLNKIDKVEVDKNNINIFGEKNDREIKNNKNNKEIKIDIEIIKKIISYEIKAKYWEITGSFHWASMFDLKGNSIIFVEDIGRHNAVDKVIGYAILNNYNLNKLILRYSGRIPSDIVKKAINSGLNIIISKSPPTDKAIELAEENNILLIGFARNGKFNIYTSGRLWEE”: the “soluble on expression in E. coli” value is reported as “soluble”.
On to SLIMRYADSGLCGTVSQNMADARTRAESTDLSETSPDE, for which the “soluble on expression in E. coli” value is “soluble”.
Regarding “SLKIKHEHIESVLLALAAEKGQAWVANAITEEYLRQGGGELPLVPGKDWNNQQNIYHRWLKGETNAQREKIQKLIPAVLAILPRELRHRLCIFDTLERRALLAAQDALSTAIDAHDDAVQAVYRKAHFSGGGSPSDSVVVH”, the “soluble on expression in E. coli” value was “soluble”.
“SLKIKNILLSGGSGKRLWPLSRSLYPKQFLKLFDHKSLFELSFKRNASLVDETLIVCNEKHYFLALEEIKNEIKNKSVGFLLESLSKNTANAIALSALMSDKEDLLIVTPSDHLIKDLQAYENAIKKAIDLAQKGFLVTFGVSIDKPNTEFGYIESPNGLDVKRFIEKPSLDKAIEFQKSGGFYFNSGMFVFQAGVFLDELKKHAPTILKGCERAFESLENAYFFEKKIARLSEKSMQDLEDMSIDIALMQQSHKIKMVELNAKWSDLGNFNALFEEAANEPKENVSLNQTPVFAKESENNLVFSHKVSALLGVENLAVIDTKDALLIAHKDKAKDLKALVNEVETNN”: the “soluble on expression in E. coli” value was “soluble”.
For “SLKSLNHISLLCRSVEESISFYQNVLGFLPIRRPDSFDFDGAWLFGHGIGIHLLQSPEPEKLLKKTEINPKDNHISFQCESMEAVEKKLKEMEIEYVRAVVEEGGIQVDQLFFHDPDAFMIEICNCDSLPVIPLAGEMARSCSRLNIRQLVQPTQIHEG”, the “soluble on expression in E. coli” value is on record as “soluble”.
Consider “SLKVKAINLYTYKEPFKSPISTPKVKLTHRESLFTEIVTYSGETYYGECNAFLTNWYDKETILTVVNRLRQWIPQVLHKDMTSFDSWLPYLNQMNDAPAARSMVVMAVYQMYNDLHDFEVQYGATVSGLTNSQIETLLETRPKRIKLKWSTSLIKDLETIRLLNFDCDIAIDANESLTKPSFLQLANVNTSDIIYIEEPFKILEDLNDIDMSIFPRIAIDEKALSIEKIQSIIQQYPIQVVVLKPFRLGGIDRMLNAMKILKEKNIRFVVGGMYEFGLSRYFTAMLAKEGSYPGDITPHGYYFSNDIVETSGILKGGMIYFTPPKVKRSLLNKV”, for which the “soluble on expression in E. coli” value is “soluble”.
On to “SLLKLAIPKGRLEEKVMTYLKKTGVIFERESSILREGKDIVCFMVRPFDVPTYLVHGVADIGFCGTDVLLEKETSLIQPFFIPTNISRMVLAGPKGRGIPEGEKRIATKFPNVTQRYCESKGWHCRIIPLKGSVELAPIAGLSDLIVDITETGRTLKENNLEILDEIFVIRTHVVVNPVSYRTKREEVVSFLEKLQEVIEHDSNEQSRGEGGSHHHHHH”, for which the “soluble on expression in E. coli” value is recorded as “soluble”.
The entry for “SLLLLQSILITKIMVIQLILFFEYALASGFEDKNILKEGKMMFDTLLKQFLEIDKVISLLYKDFVDNYIDFKNLEIVKIKKENEIENKLKSLLKSENIDYALVVAPEDEDILYNLTKIIESYPVKNLGCSSEAIKIAGNKYLTYLAIKDAVKTPKTFPPKKYVVKKIDSCGGKFNLFDENFLIQEFIDGENLSVSLIVGKKIHPLSLNRQYIDKRGFVGGEVNINHKLKDKIFNEAIKAVKCINGLNGYVGVDVIVNNDGIYIIEINPRITTTIYGLKTNPSLAELLIKNANNEELKFKVKGEKFTIDK” is “not soluble”; for “SLMAGLPNSSNALQQWHHLFEAEGTKRSPQAQQHLQQLLRTGLPTRKHENWKYTPLEGLINSQFVSIAGEISPQQRDALALTLDSVRLVFVDGRYVPALSDATEGSGYEVSINDDRQGLPDAIQAEVFLHLTESLAQSVTHIAVKRGQRPAKPLLLMHITQGVAGEEVNTAHYRHHLDLAEGAEATVIEHFVSLNDARHFTGARFTINVAANAHLQHIKLAFENPLSHHFAHNDLLLAEDATAFSHSFLLGGAVLRHNTSTQLNGENSTLRINSLAMPVKNEVCDTRTWLEHNKGFCNSRQLHKTIVSDKGRAVFNGLINVAQHAIKTDGQMTNNNLLMGKLAEVDTKPQLEIYADDVKCSHGATVGRIDDEQIFYLRSRGINQQDAQQMIIYAFAAELTEALRDEGLKQQVLARIGQRLPGGAREGGSHHHHHH” it is “soluble”; for “SLNTGEPAPVLSSPPPADVSTFLAFPSPEKLLRLGPKSSVLIAQQTDTSDPEKVVSAFLKVSSVFKDEATVRMAVQDAVDALMQKAFNSSSFNSNTFLTRLLVHMGLLKSEDKVKAIANLYGPLMALNHMVQQDYFPKALAPLLLAFVTKPNSALESSSFARHSLLQTLYKV” it is “soluble”.
For the sequence “SLPAPTQLFFPLIRNCELSRIYGTACYCHHKHLCCSSSYIPQSRLRYTPHPAYATFCRPKENWWQYTQGRRYASTPQKFYLTPPQVNSILKANEYSFKVPEFDGKNVSSILGFDSNQLPANAPIEDRRSAATCLQTRGMLLGVFDGHAGCACSQAVSERLFYYIAVSLLPHETLLEIENAVESGRALLPILQWHKHPNDYFSKEASKLYFNSLRTYWQELIDLNTGESTDIDVKEALINAFKRLDNDISLEAQVGDPNSFLNYLVLRVAFSGATACVAHVDGVDLHVANTGDSRAMLGVQEEDGSWSAVTLSNDHNAQNERELERLKLEHPKSEAKSVVKQDRLLGLLMPFRAFGDVKFKWSIDLQKRVIESGPDQLNDNEYTKFIPPNYHTPPYLTAEPEVTYHRLRPQDKFLVLATDGLWETMHRQDVVRIVGEYLTGMHHQQPIAVGGYKVTLGQMHGLLTERRTKMSSVFEDQNAATHLIRHAVGNNEFGTVDHERLSKMLSLPEELARMYRDDITIIVVQFNSHVVGAYQNQE”, the “soluble on expression in E. coli” value is on record as “not soluble”.
For the sequence “SLPTLVTTQASDIDGSTLLSSQKGSGLGDCDSDARWTWDGRRFVPTSTSTSGLCRLVAAGGAWELPTLVTEVKSSP”, the “soluble on expression in E. coli” value is listed as “soluble”.
Regarding “SLQPYEKYLKLNSQKLRADQTDTERKLWQRINRDQLLGFRFNRQKPLLSYIVDFYCAKTKLIIELDGSQHYKPDYQEKDALRDAELNSLGFTVMRFSNDEVMREIEAVVEQIYLFLENVRTD”, the “soluble on expression in E. coli” value is given as “not soluble”.
The entry for “SLRITLEFTGEKNLILPIHYNYIVQGLLYDLMGDTDFAAFLHDVGFQYEKRRFKLFTFSRIEGEFQIVEKPNGQKKIIIKPPFKFTVASPLEEVIIDISKNILKREYCHFNGQKFTLNSLNIENPPIFKEKARIKFISPVVMYTTLRNGEKKYTYYYSPWDEKFSPLLLNNLVKKYELVYKIKPKNPHFKLIPLTEKEDRRYSKVIKYKNVYVKGWMGIYDVETTPELLELAYYTGLGAKNSQGFGCFEIIG” is “not soluble”.
